In patent US20260234738A1:

Biological target: SARS-CoV-2 spike protein variant Y483A on VSV pseudoparticles (SARS-CoV-2) (UniProt P0DTC2)
Experiment: cell-based or functional assay

## mAb10987 (antibody)
  Relative neutralization at 5 µg/ml: 99%
